Laboratory results as given in US20140179593A1 (published 2014).
Positions of bridges follow the written chain, without caps; N, C: chain ends. Non-standard residues stand in square brackets, D forms with d. S5 = C=CCCC[C@](C)(N)C(=O)O

What was measured:
[1] = target: T1, hDcn1^P (residues 62 to the C-terminal residue 259 of hDcn1, aka SCCRO or DCUN1D1) (Homo sapiens, UniProt Q96GG9 62-259); assay: ITC; against Acetyl-hUbc12^1-12
T1 construct: Expressed as a GST fusion in E. coli; GST released by TEV protease; also called DCUN1D1^P; PONY domain of hDcn1
T1 sequence (Q96GG9 62-259): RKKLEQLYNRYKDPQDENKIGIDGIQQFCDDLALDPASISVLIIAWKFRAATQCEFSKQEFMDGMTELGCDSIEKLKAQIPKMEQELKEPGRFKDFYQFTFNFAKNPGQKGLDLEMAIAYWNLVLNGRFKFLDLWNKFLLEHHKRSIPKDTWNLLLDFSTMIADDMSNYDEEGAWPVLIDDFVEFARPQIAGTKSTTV
Protocol: (§1) Specifically, Phe5 and Gln9 were replaced with (S)-2-(4′-pentenyl) alanine and these side-chains were covalently linked to test the effect of “stapling” an acetylated Ubc12 peptide into a helix (Bird et al. (2008) Methods Enzymol 446:369-386).
(§2) Protein samples were buffer matched by desalting over a NAP-5 column (GE Healthcare) into 50 mM Hepes, 125 mM NaCl, 1 mM BME, pH 7.0 (ITC buffer). Peptides were dissolved by weight to a final concentration of 10 mM in ITC buffer and diluted further in ITC buffer as required for the experiments. […] The peptide ligands (4 mM) were constantly injected (1.5 μl). The interval time between each injection was 3 minutes and the duration of each injection was 3 seconds. […] Peptide ligands (250 μM) were constantly injected (2.5 μl). The interval time between each injection was three minutes and the duration of each injection was 5 seconds. […] The interval time between each injection was 3 minutes and the duration of each injection was 5 seconds. Obtained spectra were evaluated using Origin (V 7.0) to determine heats of binding and Kd values.

[2] = target: T2, hE1 for Nedd8 (APPBP1-UBA3, NAE1-UBA3) (Homo sapiens, UniProt Q13564 18-534; Q8TBC4 22-463, limits assumed); assay: not named in the sentence (ITC in Table 25)
T2 construct: Heterodimer of NAE1 and UBA3, expressed in E. coli as described previously
T2 sequence 1: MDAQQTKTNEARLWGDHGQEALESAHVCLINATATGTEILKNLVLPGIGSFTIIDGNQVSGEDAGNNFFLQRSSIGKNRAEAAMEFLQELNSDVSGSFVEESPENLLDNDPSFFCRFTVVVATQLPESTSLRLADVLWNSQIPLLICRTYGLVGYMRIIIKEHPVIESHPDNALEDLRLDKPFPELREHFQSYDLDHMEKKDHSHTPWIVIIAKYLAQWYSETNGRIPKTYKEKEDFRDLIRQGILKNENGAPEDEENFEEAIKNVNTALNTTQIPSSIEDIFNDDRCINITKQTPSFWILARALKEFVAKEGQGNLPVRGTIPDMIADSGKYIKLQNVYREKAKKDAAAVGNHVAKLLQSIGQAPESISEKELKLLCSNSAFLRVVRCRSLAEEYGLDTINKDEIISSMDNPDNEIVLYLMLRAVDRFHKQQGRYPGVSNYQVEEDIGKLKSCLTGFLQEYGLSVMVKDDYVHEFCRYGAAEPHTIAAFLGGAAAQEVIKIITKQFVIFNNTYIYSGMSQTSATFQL
T2 sequence 2: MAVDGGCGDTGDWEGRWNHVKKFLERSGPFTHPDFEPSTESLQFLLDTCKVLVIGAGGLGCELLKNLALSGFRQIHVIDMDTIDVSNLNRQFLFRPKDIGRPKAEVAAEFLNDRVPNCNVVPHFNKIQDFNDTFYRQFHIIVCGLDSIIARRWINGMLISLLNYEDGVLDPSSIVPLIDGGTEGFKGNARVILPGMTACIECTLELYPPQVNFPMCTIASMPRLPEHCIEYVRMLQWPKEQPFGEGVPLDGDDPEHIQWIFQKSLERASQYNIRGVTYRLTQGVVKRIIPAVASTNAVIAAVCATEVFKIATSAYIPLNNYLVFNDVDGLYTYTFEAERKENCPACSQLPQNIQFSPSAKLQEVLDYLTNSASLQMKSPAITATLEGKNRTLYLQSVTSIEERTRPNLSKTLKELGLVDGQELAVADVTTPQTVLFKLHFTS
Protocol: as §1, §2

fold improvement of binding over the unstapled peptide [1]: 14 fold
binding result [2]: no binding
B1: Acetyl-hUbc12^1-12(5:9Staple) (peptide)
peptide: Ac-MIKL[S5]SLK[S5]QKK-NH2
modifications: staple 5-9
notes: Printed Ac-MIKLXSLKXQKK-NH2, X = 2-(4-pentenyl)alanine; also called stapled helical peptide
